Measurements from PMC9692514, “Identification of a Novel p53 Modulator Endowed with Antitumoural and Antibacterial Activity through a Scaffold Repurposing Approach” (Pharmaceuticals, 2022).

Biological target: T1, recombinant human His-tagged p53 protein (residues 1–312) (human, UniProt P04637 1-312)
T1 construct: p53, human, residues 1-312; source: final dialysis with 0.2 mM ZnCl2
Test: NMR antagonist-induced dissociation assay (AIDA), 1D proton spectra; Trp NHε side-chain signals of the MDM2–p53 complex; 0.1 mM proteins, 25 °C, 20 mM Tris-HCl, 150 mM KCl, pH 7.4, 5 mM β-mercaptoethanol, 0.02% NaN3; also after RM37 (0.2 mM)
Settings: both partners purified

T1 sequence (P04637 1-312): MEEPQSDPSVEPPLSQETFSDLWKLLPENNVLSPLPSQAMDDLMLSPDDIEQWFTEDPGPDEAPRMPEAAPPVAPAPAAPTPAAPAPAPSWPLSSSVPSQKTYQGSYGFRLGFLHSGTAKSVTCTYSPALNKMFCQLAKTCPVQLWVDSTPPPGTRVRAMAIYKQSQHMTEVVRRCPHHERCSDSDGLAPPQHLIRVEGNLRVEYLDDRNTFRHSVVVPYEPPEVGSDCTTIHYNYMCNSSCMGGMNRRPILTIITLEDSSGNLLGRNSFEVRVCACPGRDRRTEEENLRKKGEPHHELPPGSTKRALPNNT

B1: recombinant human His-tagged N-terminal region of MDM2 (residues 1–118) (domain or fragment, UniProt Q00987 1-118, looked up)
chain: MCNTNMSVPTDGAVTTSQIPASEQETLVRPKPLLLKLLKSVGAQKDTYTMKEVLFYLGQYIMTKRLYDEKQQHIVYCSNDLLGDLFGVPSFSVKEHRKIYTMIYRNLVVVNQQESSDS
notes: MDM2 (HDM2), human, N-terminal region, residues 1-118; Cloned in a derivative of the vector pET-46Ek/LIC (Novagen); that vector probably adds the His tag at the N-terminus (surmised); No cleavage of the tag is told; also called HDM2
  binding result: binds
